B1: GLS3000 H27dL (Kabat) L chain altered form, one-arm antibody with CE115HA000 (antibody, human IgG1, kappa, L234A L235A, N297A, name in Kabat numbering)
heavy: QVQLVESGGGVVQPGRSLRLSCAASGFTFSNAWMHWVRQAPGKGLEWVAQIKAKSNNYATYYAESVKGRFTISRDDSKNSLYLQMNSLKTEDTAVYYCRYVHYGAYYGVDAWGQGTTVTVSSASTKGPSVFPLAPSSKSTSGGTAALGCLVKDYFPEPVTVSWNSGALTSGVHTFPAVLQSSGLYSLSSVVTVPSSSLGTQTYICNVNHKPSNTKVDKKVEPKSCDKTHTCPPCPAPEAAGGPSVFLFPPKPKDTLMISRTPEVTCVVVDVSHEDPEVKFNWYVDGVEVHNAKTKPREEQYASTYRVVSVLTVLHQDWLNGKEYKCKVSNKALPAPIEKTISKAKGQPREPQVYTLPPSRCELTKNQVSLSCAVKGFYPSDIAVEWESNGQPENNYKTTPPVLDSDGSFFLVSKLTVDKSRWQQGNVFSCSVMHEALHNHYTQKSLSLSPDYKDDDDK
chain: EPKSSDKTHTCPPCPAPELLGGPSVFLFPPKPKDTLMISRTPEVTCVVVDVSHEDPEVKFNWYVDGVEVHNAKTKPREEQYNSTYRVVSVLTVLHQDWLNGKEYKCKVSNKALPAPIEKTISKAKGQPREPQVCTLPPSRDELTKNQVSLWCLVKGFYPSDIAVEWESNGQPENNYKTTPPVLDSDGSFFLYSKLTVDKSRWQQGNVFSCSVMHEALHNRYTQKSLSLSP
light: DIVMTQSPLSLPVTPGEPASISCRSSQSLVLSNRNTYLHWYQQKPGQAPRLLIYKVSNRFSGVPDRFSGSGSGTDFTLKISRVEAEDVGVYYCGQGTQVPYTFGQGTKLEIKRTVAAPSVFIFPPSDEQLKSGTASVVCLLNNFYPREAKVQWKVDNALQSGNSQESVTEQDSKDSTYSLSSTLTLSKADYEKHKVYACEVTHQGLSSPVTKSFNRGEC
notes: one-arm antibody
B2: GLS3000 L27bY (Kabat) L chain altered form, one-arm antibody with CE115HA000 (antibody, human IgG1, kappa, L234A L235A, N297A, name in Kabat numbering)
heavy: B1 heavy
chain: B1 chain
light: B1 light with L29Y, L31H
notes: one-arm antibody
B3: GLS3000 L27bF (Kabat) L chain altered form, one-arm antibody with CE115HA000 (antibody, human IgG1, kappa, L234A L235A, N297A, name in Kabat numbering)
heavy: B1 heavy
chain: B1 chain
light: B1 light with L29F, L31H
notes: one-arm antibody
B4: GLS3000 H27dY (Kabat) L chain altered form, one-arm antibody with CE115HA000 (antibody, human IgG1, kappa, L234A L235A, N297A, name in Kabat numbering)
heavy: B1 heavy
chain: B1 chain
light: B1 light with L31Y
notes: one-arm antibody
B5: GLS3000 N28H (Kabat) L chain altered form, one-arm antibody with CE115HA000 (antibody, human IgG1, kappa, L234A L235A, N297A, name in Kabat numbering)
heavy: B1 heavy
chain: B1 chain
light: B1 light with L31H, N33H
notes: one-arm antibody
B6: GLS3000 H27dT (Kabat) L chain altered form, one-arm antibody with CE115HA000 (antibody, human IgG1, kappa, L234A L235A, N297A, name in Kabat numbering)
heavy: B1 heavy
chain: B1 chain
light: B1 light with L31T
notes: one-arm antibody
B7: GLS3000 L27bD (Kabat) L chain altered form, one-arm antibody with CE115HA000 (antibody, human IgG1, kappa, L234A L235A, N297A, name in Kabat numbering)
heavy: B1 heavy
chain: B1 chain
light: B1 light with L29D, L31H
notes: one-arm antibody
B8: GLS3000 H34A (Kabat) L chain altered form, one-arm antibody with CE115HA000 (antibody, human IgG1, kappa, L234A L235A, N297A, name in Kabat numbering)
heavy: B1 heavy
chain: B1 chain
light: B1 light with L31H, H39A
notes: one-arm antibody
B9: GLS3000 H27dR (Kabat) L chain altered form, one-arm antibody with CE115HA000 (antibody, human IgG1, kappa, L234A L235A, N297A, name in Kabat numbering)
heavy: B1 heavy
chain: B1 chain
light: B1 light with L31R
notes: one-arm antibody
B10: GLS3000 H27dS (Kabat) L chain altered form, one-arm antibody with CE115HA000 (antibody, human IgG1, kappa, L234A L235A, N297A, name in Kabat numbering)
heavy: B1 heavy
chain: B1 chain
light: B1 light with L31S
notes: one-arm antibody
B11: GLS3000 N28G (Kabat) L chain altered form, one-arm antibody with CE115HA000 (antibody, human IgG1, kappa, L234A L235A, N297A, name in Kabat numbering)
heavy: B1 heavy
chain: B1 chain
light: B1 light with L31H, N33G
notes: one-arm antibody
B12: GLS3000 H27dV (Kabat) L chain altered form, one-arm antibody with CE115HA000 (antibody, human IgG1, kappa, L234A L235A, N297A, name in Kabat numbering)
heavy: B1 heavy
chain: B1 chain
light: B1 light with L31V
notes: one-arm antibody
B13: GLS3000 L27bW (Kabat) L chain altered form, one-arm antibody with CE115HA000 (antibody, human IgG1, kappa, L234A L235A, N297A, name in Kabat numbering)
heavy: B1 heavy
chain: B1 chain
light: B1 light with L29W, L31H
notes: one-arm antibody
B14: GLS3000 H27dW (Kabat) L chain altered form, one-arm antibody with CE115HA000 (antibody, human IgG1, kappa, L234A L235A, N297A, name in Kabat numbering)
heavy: B1 heavy
chain: B1 chain
light: B1 light with L31W
notes: one-arm antibody
B15: GLS3000 H27dN (Kabat) L chain altered form, one-arm antibody with CE115HA000 (antibody, human IgG1, kappa, L234A L235A, N297A, name in Kabat numbering)
heavy: B1 heavy
chain: B1 chain
light: B1 light with L31N
notes: one-arm antibody
B16: GLS3000 L27bE (Kabat) L chain altered form, one-arm antibody with CE115HA000 (antibody, human IgG1, kappa, L234A L235A, N297A, name in Kabat numbering)
heavy: B1 heavy
chain: B1 chain
light: B1 light with L29E, L31H
notes: one-arm antibody
B17: GLS3000 L33A (Kabat) L chain altered form, one-arm antibody with CE115HA000 (antibody, human IgG1, kappa, L234A L235A, N297A, name in Kabat numbering)
heavy: B1 heavy
chain: B1 chain
light: B1 light with L31H, L38A
notes: one-arm antibody
B18: GLS3000 L27bV (Kabat) L chain altered form, one-arm antibody with CE115HA000 (antibody, human IgG1, kappa, L234A L235A, N297A, name in Kabat numbering)
heavy: B1 heavy
chain: B1 chain
light: B1 light with L29V, L31H
notes: one-arm antibody
B19: GLS3000 H27dP (Kabat) L chain altered form, one-arm antibody with CE115HA000 (antibody, human IgG1, kappa, L234A L235A, N297A, name in Kabat numbering)
heavy: B1 heavy
chain: B1 chain
light: B1 light with L31P
notes: one-arm antibody
B20: GLS3000 N28E (Kabat) L chain altered form, one-arm antibody with CE115HA000 (antibody, human IgG1, kappa, L234A L235A, N297A, name in Kabat numbering)
heavy: B1 heavy
chain: B1 chain
light: B1 light with L31H, N33E
notes: one-arm antibody
B21: GLS3000 H27dQ (Kabat) L chain altered form, one-arm antibody with CE115HA000 (antibody, human IgG1, kappa, L234A L235A, N297A, name in Kabat numbering)
heavy: B1 heavy
chain: B1 chain
light: B1 light with L31Q
notes: one-arm antibody
B22: GLS3000 L27bM (Kabat) L chain altered form, one-arm antibody with CE115HA000 (antibody, human IgG1, kappa, L234A L235A, N297A, name in Kabat numbering)
heavy: B1 heavy
chain: B1 chain
light: B1 light with L29M, L31H
notes: one-arm antibody
B23: GLS3000 N28K (Kabat) L chain altered form, one-arm antibody with CE115HA000 (antibody, human IgG1, kappa, L234A L235A, N297A, name in Kabat numbering)
heavy: B1 heavy
chain: B1 chain
light: B1 light with L31H, N33K
notes: one-arm antibody
B24: GLS3000 H27dM (Kabat) L chain altered form, one-arm antibody with CE115HA000 (antibody, human IgG1, kappa, L234A L235A, N297A, name in Kabat numbering)
heavy: B1 heavy
chain: B1 chain
light: B1 light with L31M
notes: one-arm antibody
B25: GLS3000 N28I (Kabat) L chain altered form, one-arm antibody with CE115HA000 (antibody, human IgG1, kappa, L234A L235A, N297A, name in Kabat numbering)
heavy: B1 heavy
chain: B1 chain
light: B1 light with L31H, N33I
notes: one-arm antibody
B26: GLS3000 L27bS (Kabat) L chain altered form, one-arm antibody with CE115HA000 (antibody, human IgG1, kappa, L234A L235A, N297A, name in Kabat numbering)
heavy: B1 heavy
chain: B1 chain
light: B1 light with L29S, L31H
notes: one-arm antibody
B27: GLS3000 L27bP (Kabat) L chain altered form, one-arm antibody with CE115HA000 (antibody, human IgG1, kappa, L234A L235A, N297A, name in Kabat numbering)
heavy: B1 heavy
chain: B1 chain
light: B1 light with L29P, L31H
notes: one-arm antibody
B28: GLS3000 N28D (Kabat) L chain altered form, one-arm antibody with CE115HA000 (antibody, human IgG1, kappa, L234A L235A, N297A, name in Kabat numbering)
heavy: B1 heavy
chain: B1 chain
light: B1 light with L31H, N33D
notes: one-arm antibody
B29: GLS3000 N28A (Kabat) L chain altered form, one-arm antibody with CE115HA000 (antibody, human IgG1, kappa, L234A L235A, N297A, name in Kabat numbering)
heavy: B1 heavy
chain: B1 chain
light: B1 light with L31H, N33A
notes: one-arm antibody
B30: GLS3000 K50A (Kabat) L chain altered form, one-arm antibody with CE115HA000 (antibody, human IgG1, kappa, L234A L235A, N297A, name in Kabat numbering)
heavy: B1 heavy
chain: B1 chain
light: B1 light with L31H, K55A
notes: one-arm antibody
B31: GLS3000 N28F (Kabat) L chain altered form, one-arm antibody with CE115HA000 (antibody, human IgG1, kappa, L234A L235A, N297A, name in Kabat numbering)
heavy: B1 heavy
chain: B1 chain
light: B1 light with L31H, N33F
notes: one-arm antibody
B32: GLS3000 L27bI (Kabat) L chain altered form, one-arm antibody with CE115HA000 (antibody, human IgG1, kappa, L234A L235A, N297A, name in Kabat numbering)
heavy: B1 heavy
chain: B1 chain
light: B1 light with L29I, L31H
notes: one-arm antibody

The source of these data is patent US20240270846A1 (published 2024).

Positions count from the first letter of the chain named. Numbers in names are those of the source.

For this test, the target named is T1, CD3 epsilon homodimer protein (UniProt P07766 23-126).
T1 construct: construct not described; homodimer as printed; also called CD3 (CD3 epsilon)
T1 sequence (P07766 23-126): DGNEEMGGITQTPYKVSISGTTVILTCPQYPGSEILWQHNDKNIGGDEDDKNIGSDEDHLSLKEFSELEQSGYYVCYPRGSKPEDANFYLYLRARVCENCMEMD
Nature of the test: SPR Biacore T200, CD3 epsilon homodimer immobilized; vs unaltered GLS3000.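 Also: antibody variants flowed as analyte over CD3 epsilon homodimer amine-coupled to a CM4 chip, at 25 °C in HBS-EP+ running buffer, fitted with Biacore T200 Evaluation Software.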 On the technique in general: Surface plasmon resonance follows binding to a sensor surface in real time, without labels.
Consider B1, for which the “KD ratio to GLS3000 (Affinity up)” value was 3.37.

With B2, the “KD ratio to GLS3000 (Affinity up)” value worked out at 22.2.

For the molecule B3, the “KD ratio to GLS3000 (Affinity up)” value is 2.67.

On to B4, for which the “KD ratio to GLS3000 (Affinity up)” value came to 1.98.

On to B5, for which the “KD ratio to GLS3000 (Affinity up)” value was 3.

B6: the “KD ratio to GLS3000 (Affinity up)” value is 13000.

As to B7, the “KD ratio to GLS3000 (Affinity up)” value was determined as 25.1.

Consider B8, for which the “KD ratio to GLS3000 (Affinity up)” value was 1.18.

With B9, the “KD ratio to GLS3000 (Affinity up)” value was determined as 2.35.

For the molecule B10, the “KD ratio to GLS3000 (Affinity up)” value is 3.05.

Regarding B11, the “KD ratio to GLS3000 (Affinity up)” value is 2.41.

Regarding B12, the “KD ratio to GLS3000 (Affinity up)” value was 354.

Consider B13, for which the “KD ratio to GLS3000 (Affinity up)” value came to 23.6.

For B14, the “KD ratio to GLS3000 (Affinity up)” value was 1.86.

B15: the “KD ratio to GLS3000 (Affinity up)” value came to 3.43.

Regarding B16, the “KD ratio to GLS3000 (Affinity up)” value came out at 26.8.

For B17, the “KD ratio to GLS3000 (Affinity up)” value is 0.82.

Regarding B18, the “KD ratio to GLS3000 (Affinity up)” value turned out to be 1.11.

As to B19, the “KD ratio to GLS3000 (Affinity up)” value was determined as 9.21.

As to B20, the “KD ratio to GLS3000 (Affinity up)” value is 5.47.

In the case of B21, the “KD ratio to GLS3000 (Affinity up)” value was 7.48.

Regarding B22, the “KD ratio to GLS3000 (Affinity up)” value came to 1.31.

For the molecule B23, the “KD ratio to GLS3000 (Affinity up)” value was found to be 2.34.

With B24, the “KD ratio to GLS3000 (Affinity up)” value was 3.43.

Turning to B25, the “KD ratio to GLS3000 (Affinity up)” value is 2.81.

Regarding B26, the “KD ratio to GLS3000 (Affinity up)” value worked out at 0.9.

On to B27, for which the “KD ratio to GLS3000 (Affinity up)” value stood at 0.96.

Take B28: the “KD ratio to GLS3000 (Affinity up)” value came out at 4460.

As to B29, the “KD ratio to GLS3000 (Affinity up)” value was 4.18.

As to B30, the “KD ratio to GLS3000 (Affinity up)” value worked out at 59.5.

In the case of B31, the “KD ratio to GLS3000 (Affinity up)” value is 2.59.

On to B32, for which the “KD ratio to GLS3000 (Affinity up)” value is 1.17.
